Source: patent US20140223606, “COMPOSITIONS AND METHODS COMPRISING SEQUENCES HAVING MEGANUCLEASE ACTIVITY” (PIONEER HI BRED INTERNATIONAL INC, published 2014)
Substitutions are numbered along the chain they refer to.

B1: MHP14 recognition site (dsDNA)
DNA 1: CAAACAGATTCACGTCAGATTT
DNA 2: AAATCTGACGTGAATCTGTTTG
B2: ZM6.22v2 recognition site (dsDNA)
DNA 1: ATTGCTCTCTCACATACTTTTA
DNA 2: TAAAAGTATGTGAGAGAGCAAT

Columns and labels:
MHP14+(14) = biological target: T1, MHP14+(14) (artificial); experiment: cell_activity; maize; yeast 37 C: 4; conditions: tags: SV40 NLS
T1 chain: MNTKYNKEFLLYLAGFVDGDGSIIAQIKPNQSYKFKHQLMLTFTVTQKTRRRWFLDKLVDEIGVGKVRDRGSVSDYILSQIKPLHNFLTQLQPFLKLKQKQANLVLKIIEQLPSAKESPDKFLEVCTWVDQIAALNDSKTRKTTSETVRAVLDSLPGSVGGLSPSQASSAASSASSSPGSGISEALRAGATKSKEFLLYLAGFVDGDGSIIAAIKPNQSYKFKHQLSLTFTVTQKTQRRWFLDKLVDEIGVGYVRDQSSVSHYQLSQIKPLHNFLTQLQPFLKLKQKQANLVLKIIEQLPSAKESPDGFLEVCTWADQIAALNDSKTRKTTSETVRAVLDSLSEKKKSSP

MHP14+(06) = biological target: T2, MHP14+(06) (artificial); experiment: cell_activity; maize; yeast 37 C: 4; conditions: tags: SV40 NLS
T2 chain: T1 chain with D56L, I81K, K121G, K244E, S258G, F281Y, G308K, A316V, I319V

MHP14+(12) = biological target: T3, MHP14+(12) (artificial); experiment: cell_activity; maize; yeast 37 C: 4; conditions: tags: SV40 NLS
T3 chain: T1 chain with F16I, R50K, N103V, I132V, D153M, K244E, S258G, F281Y, G308K, A316V

ZM6.22v2(I8) = biological target: T4, ZM6.22v2(I8) (artificial); experiment: cell_activity; yeast 37 C; 30 C: 0.5; conditions: tags: NLS, 6xHis
T4 chain: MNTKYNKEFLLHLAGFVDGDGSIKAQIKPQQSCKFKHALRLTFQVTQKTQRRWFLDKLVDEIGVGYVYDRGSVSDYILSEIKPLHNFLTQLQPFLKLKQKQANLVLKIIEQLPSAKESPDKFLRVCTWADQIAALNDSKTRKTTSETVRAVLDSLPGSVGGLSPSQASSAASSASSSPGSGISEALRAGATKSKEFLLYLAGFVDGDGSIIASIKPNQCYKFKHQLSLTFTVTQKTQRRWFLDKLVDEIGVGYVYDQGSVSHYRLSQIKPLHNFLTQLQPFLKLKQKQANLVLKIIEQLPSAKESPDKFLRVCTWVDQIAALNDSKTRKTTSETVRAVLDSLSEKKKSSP
Description: (§1) A 3 mL culture of selective media (MP Biomedical) was inoculated with a single colony of the yeast screening strain and grown at 30° C. overnight. On the following day, a 50 ml YPD culture (MP Biomedical) was started with 2 ml of the overnight culture and grown at 30° C. overnight. On the following day, the cells were harvested by centrifugation at 4000 rpm. The cells were resuspended in 100 ml ice cold water and centrifuged again. The cells were then washed in 1.2 M sorbitol, followed by treatment with 2 ml of 10 mM Tris pH 8.0, 1 mM EDTA, 100 mM Lithium acetate, 10 mM DTT, 0.6M sorbitol for 30 minutes at 30° C. with shaking. The cells were recovered by centrifugation, washed in 40 ml 1.2M sorbitol and finally resuspended in 250 microliters of 1.2M sorbitol. 50 microliter aliquots were transferred to test tubes on ice. Up to 5 microliters of DNA (100-500 nanograms) were added. The suspension was transferred to a 0.2 cm electroporation cuvette, on ice. Electroporation was performed with a pulse charge at 1.5 kV, 200 ohms, 25 microF (pulse time of 5 milliseconds). 1 mL YPD media (MP Biomedical) was added and the cells were allowed to recover at 30° C. for 1-2 hr. The cells were centrifuged, resuspended in 100 uL 1M sorbitol and plated on selective media lacking leucine and containing 2% galactose. The resulting yeast colonies were incubated at various temperatures ranging from 22 to 37 degrees Celsius for 7-10 days. I-CreI and meganucleases derived from it have maximal activity at or above 37 degrees Celsius. Screening was performed at a range of temperatures from 22 to 37 degrees in order to observe increases in activity at lower temperatures which are relevant to certain biological systems (eg. plant cells, plant cell cultures, etc). At that time the red/white sectoring phenotype, indicative of meganuclease activity was observed. Colonies with increased white sectoring over the parental meganuclease (indicating colonies expressing a meganuclease with increased meganuclease activity), also referred to as “hits” and sometimes completely white, were isolated for further analysis.
(§2) A total of 13 ZM6.22v2 variants with increased activity were confirmed in the yeast system (as described in Example 6). Increased activity was observed across a range of temperatures: 28 degrees Celsius, 30 degrees Celsius and 37 degrees Celsius, as shown in Table 16.

ZM6.22v2(J5) = biological target: T5, ZM6.22v2(J5) (artificial); experiment: cell_activity; yeast 37 C; 30 C: 0.5; conditions: tags: NLS, 6xHis
T5 chain: T4 chain with V105A, A129V, D153L
Description: as §1, §2

Binder	activity (MHP14+(14))	activity (MHP14+(06))	activity (MHP14+(12))	activity (ZM6.22v2(I8)) [score 0-4]	activity (ZM6.22v2(J5)) [score 0-4]
B1	39 % target site mutation rate	7 % target site mutation rate	47 % target site mutation rate		
B2				2.5	4
